Where a SMILES comes first, the peptide text is derived from it. [ ]: non-standard residue; d: D form. The star is where a group is joined. 5FAM = O=C1OC2(c3ccc(O)cc3Oc3cc(O)ccc32)c2ccc(C(=O)*)cc21
Key:
Aβ42 [1] = molecular target: T1, Aβ42 (Homo sapiens, UniProt P05067); experiment: Sedimentation velocity AUC with fluorescence detection, Aβ42 and D3 mixtures; type: binding
T1 construct: purchased Bachem H-1368.1000
Description: All measurements were performed using an XL-A analytical ultracentrifuge (Beckman coulter, Brea, CA, USA). […] All samples were prepared in 20 mM sodium phosphate, 50 mM NaCl (pH 7.4) containing 0.0004% PEI (w/v). Samples were then loaded into 3-mm double-sector titanium cells (Nanolytics, Potsdam, Germany), with each sector containing a 100 μL sample. The detection system uses an excitation laser at 488 nm and an emission cut-off filter at 505 nm to collect fluorescence signals. The amplification factor was adjusted to the same value for all samples for comparability. […] Data was acquired at 20 nm radial resolution. After thorough thermal equilibration the centrifugation was carried out at 60,000 rpm (289,000× g) at 20 °C for 15 h. Carrier proteins, such as albumin and kappa casein, are usually recommended to minimize unspecific surface adsorption for fluorescence-based AUC [56]. All sedimentation profiles were subjected to the software package SEDFIT (version 15.01b) for data evaluation. The data was analyzed with the continuous distribution c(s) Lamm equation model to obtain the sedimentation coefficient distributions. Fitting parameters (Table S1) including the buffer density and viscosity were determined using Sednterp (version 20130813BETA). […] Final graphs were generated using GUSSI (version 1.2.1) and sedimentation coefficients were standardized to s-values in pure water at 20 °C (s20,w).

[2] = Sedimentation velocity AUC with fluorescence detection, labeled peptide alone; type: physicochemical; details: AUC-FDS, 60,000 rpm, 20 °C, 15 h, c(s) model; 0.2 μM FITC-D3 in 20 mM sodium phosphate, 50 mM NaCl pH 7.4, 0.0004% PEI; 0.33 μM FITC-Aβ42 in 55 mM Tris, 50 mM NaCl pH 7.4, 0.01% Tw20
Description: All measurements were performed using an XL-A analytical ultracentrifuge (Beckman coulter, Brea, CA, USA). […] All samples were prepared in 20 mM sodium phosphate, 50 mM NaCl (pH 7.4) containing 0.0004% PEI (w/v). Samples were then loaded into 3-mm double-sector titanium cells (Nanolytics, Potsdam, Germany), with each sector containing a 100 μL sample. The detection system uses an excitation laser at 488 nm and an emission cut-off filter at 505 nm to collect fluorescence signals. The amplification factor was adjusted to the same value for all samples for comparability. […] Data was acquired at 20 nm radial resolution. After thorough thermal equilibration the centrifugation was carried out at 60,000 rpm (289,000× g) at 20 °C for 15 h. Carrier proteins, such as albumin and kappa casein, are usually recommended to minimize unspecific surface adsorption for fluorescence-based AUC [56]. All sedimentation profiles were subjected to the software package SEDFIT (version 15.01b) for data evaluation. The data was analyzed with the continuous distribution c(s) Lamm equation model to obtain the sedimentation coefficient distributions. Fitting parameters (Table S1) including the buffer density and viscosity were determined using Sednterp (version 20130813BETA). […]

Aβ42 [3] = molecular target: T1, Aβ42; experiment: ThT assay, fibrillation kinetics of Aβ42; type: biochemical; details: 50 mM NaCl pH 7.4, 20 °C, AmyloFit fit, triplicate
Description: ThT was added at a final concentration of 5 μM in all samples. The final volume of each sample was 200 μL. Samples were prepared on ice and were pipetted into a 96-well plate afterwards. The plate was sealed with a microplate sealing film. All measurements were conducted at 20 °C with a microplate reader (Infinite M200, Tecan, Männedorf, Switzerland). The fluorescence was recorded at an excitation wavelength (λex) of 445 nm and an emission wavelength (λem) of 485 nm every 30 min for 120 h. […] All samples were prepared in triplicate.
The ThT data was then subjected to the online server AmyloFit with a customized sigmoidal Equation (1) to determine the lag time tlag , and the half completion time of the aggregation process t1/2 , according to previous studies. (1) It=k0t+A/1+exp−kt−t1/2, where k0 represents the slope of the baseline, A is the amplitude, k denotes the apparent elongation rate constant. The lag time tlag can be derived from the intercept between the time axis and the tangent with slope k from the midpoint of the fitted sigmoidal curve, which is given by the following Equation (2):(2) tlag=t1/2−2/k

[4] = 20 μM Aβ42 with (label D3, 10:1) or without (label Aβ42) 2 μM D3, 55 mM Tris-HCl

T1 sequence (P05067 672-713 limits assumed): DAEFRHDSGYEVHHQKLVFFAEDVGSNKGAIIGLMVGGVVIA

Compound | s20,w of the main peak of FITC-D3 with Aβ42 (Aβ42 [1]; 0.2 μM FITC-D3 with 50-fold excess of Aβ42, 20 mM sodium phosphate, 50 mM NaCl pH 7.4, 0.0004% PEI, interpreted as 1:1 complex) | Averaged s20,w of the new species between 1 and 2 S, FITC-D3 with Aβ42 (Aβ42 [1]; 0.2 μM FITC-D3 with Aβ42, c(s) analyses from five independent experiments, complexes with higher stoichiometries) | Sedimentation coefficient s20,w of the labeled peptide alone [2] | Lag time tlag of fibrillation kinetics (Aβ42 [3]; 20 μM Aβ42 with (label D3) or without (label Aβ42) 2 μM D3, 20 mM sodium phosphate, 5 μM ThT) | Lag time tlag of fibrillation kinetics, Tris-HCl buffer (Aβ42 [3]; [4]) | Slope k of fibrillation kinetics, Tris-HCl buffer (Aβ42 [3]; [4])
CC(C)C[C@@H](NC(=O)[C@@H](CCCNC(=N)N)NC(=O)[C@H](NC(=O)[C@@H](CCCNC(=N)N)NC(=O)[C@H]1CCCN1C(=O)[C@H](N)CCCNC(=N)N)[C@H](C)O)C(=O)N[C@H](Cc1c[nH]cn1)C(=O)N[C@@H](C(=O)N[C@H](Cc1c[nH]cn1)C(=O)N[C@H](CCCNC(=N)N)C(=O)N[C@H](CC(N)=O)C(=O)N[C@H](CCCNC(=N)N)C(=O)N[C@@H](CCCCNC(=O)c1ccc2c(c1)C(=O)OC21c2ccc(O)cc2Oc2cc(O)ccc21)C(N)=O)[C@H](C)O [FITC-D3] (H-[dR][dP][dR][dT][dR][dL][dH][dT][dH][dR][dN][dR]K(5FAM)-NH2; N-terminus and C-terminus assumed) | 0.71 ± 0.04 S | 1.45 ± 0.08 S | 0.54 ± 0.02 S | – | – | –
Aβ42: unlabeled amyloid-β peptide 42, Bachem product No. H-1368.1000 [reference compound] | – | – | – | 17.3 ± 1.6 h | 14.5 ± 1.4 h | 0.13 ± 0.01

Reference: article PMC6600523, “Interference with Amyloid-β Nucleation by Transient Ligand Interaction” (Molecules, 2019)
